Laboratory results published in patent publication US20090202531A1 (Novartis, published 2009).

Columns and labels:
human FcγRIIIa-158F [1] = target: T1, human FcγRIIIa-158F (human, UniProt P08637 17-208, limits assumed); experiment: Biacore (SPR); reference rituximab on the same allele
T1 construct: also called FcγRIIIa aa158F allele

human FcγRIIIa-158V = target: T2, human FcγRIIIa-158V (human, UniProt P08637 17-208); experiment: Biacore (SPR)
T2 construct: also called FcγRIIIa aa518V allele (sic); FcγRIIIa aa158V

human FcγRIIIa-158F [2] = target: T1, human FcγRIIIa-158F; experiment: Biacore (SPR)

T1 sequence (P08637 17-208 limits assumed): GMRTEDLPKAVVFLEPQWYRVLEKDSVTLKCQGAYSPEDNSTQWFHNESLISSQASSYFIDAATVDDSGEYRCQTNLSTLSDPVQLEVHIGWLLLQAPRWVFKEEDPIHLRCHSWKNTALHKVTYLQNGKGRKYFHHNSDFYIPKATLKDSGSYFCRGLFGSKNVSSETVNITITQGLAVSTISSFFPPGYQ
T2 sequence (P08637 17-208 F176V): as the sequence (P08637 17-208 limits assumed) above, with F160V counted along it

B1: monoclonal antibody CHIR-12.12 (antibody)
heavy: not shown
light: DIVMTQSPLSLTVTPGEPASISCRSSQSLLYSNGYNYLDWYLQKPGQSPQVLISLGSNRASGVPDRFSGSGSGTDFTLKISRVEAEDVGVYYCMQARQTPFTFGPGTKVDIRRTVAAPSVFIFPPSDEQLKSGTASVVCLLNNFYPREAKVQWKVDNALQSGNSQESVTEQDSKDSTYSLSSTLTLSKADYEKHKVYACEVTHQGLSSPVTKSFNRGEC
notes: Fully human anti-CD40 IgG1 kappa; also called CH12.12
fold higher affinity compared with rituximab (human FcγRIIIa-158F [1]): 4.6 fold
Kd (human FcγRIIIa-158V): 0.492 µM
Kd (human FcγRIIIa-158F [2]): 2.8 µM
